Source: the supplement of paper PMC9112550, “Optimization of the antimicrobial peptide Bac7 by deep mutational scanning” (BMC Biology, 2022)

System: Escherichia coli TOP10
Test: shrunken log2 fold change of peptide-encoding DNA abundance (4.5 h post-induction vs induction); higher = less antimicrobial activity (less host growth inhibition)
Conditions: time post-induction: 4.5 h; library: site-saturation at positions 5, 18, 19, 20
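Further: peptides expressed intracellularly from a pBAD plasmid library in pooled LB shake-flask culture, induced with 0.3% L-arabinose, DNA abundance read by NGS, three biological replicates, DESeq2 with apeglm shrinkage.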

Sequence | shrunken log2 fold change
RRIRVRPPRLPRPRPRPEPPPRP | 0.664
RRIRGRPPRLPRPRPRPTNVPRP | 0.141
RRIRERPPRLPRPRPRPDFLPRP | 0.0309
RRIRERPPRLPRPRPRPRDTPRP | -0.0322
RRIRGRPPRLPRPRPRPGVWPRP | 1.22
RRIRVRPPRLPRPRPRPNILPRP | -0.426
RRIRNRPPRLPRPRPRPLQYPRP | -0.0315
RRIRLRPPRLPRPRPRPICHPRP | -0.368
RRIRCRPPRLPRPRPRPEIHPRP | -0.217
RRIRQRPPRLPRPRPRPMEFPRP | 0.0663
RRIRLRPPRLPRPRPRPQHFPRP | -0.343
RRIRSRPPRLPRPRPRPQWNPRP | -0.259
RRIRQRPPRLPRPRPRPNHDPRP | -0.509
RRIRWRPPRLPRPRPRPQQCPRP | 0.112
RRIRHRPPRLPRPRPRPKHFPRP | 0.451
RRIRWRPPRLPRPRPRPRLGPRP | 0.252
RRIRYRPPRLPRPRPRPSMKPRP | -0.806
RRIRHRPPRLPRPRPRPQITPRP | -0.884
RRIRRRPPRLPRPRPRPLSTPRP | 0.021
RRIRTRPPRLPRPRPRPHHYPRP | -0.46
RRIRHRPPRLPRPRPRPTQYPRP | 0.124
RRIRDRPPRLPRPRPRPKFCPRP | -0.0512
RRIRLRPPRLPRPRPRPKWYPRP | -0.299
RRIRMRPPRLPRPRPRPNFHPRP | -0.0453
RRIRVRPPRLPRPRPRPIHPPRP | 0.0943

Sequence | shrunken log2 fold change
RRIRSRPPRLPRPRPRPDWLPRP | 0.153
RRIRWRPPRLPRPRPRPKYEPRP | -0.0182
RRIRQRPPRLPRPRPRPWLQPRP | 0.188
RRIRERPPRLPRPRPRPRSEPRP | -0.0574
RRIRQRPPRLPRPRPRPTWPPRP | 0.268
RRIRHRPPRLPRPRPRPEPIPRP | 0.021
RRIRTRPPRLPRPRPRPYSHPRP | -0.04
RRIRVRPPRLPRPRPRPRYTPRP | 0.0365
RRIRPRPPRLPRPRPRPAMHPRP | 0.367
RRIRMRPPRLPRPRPRPMYKPRP | -0.472
RRIRGRPPRLPRPRPRPRKVPRP | 0.741
RRIRIRPPRLPRPRPRPYYGPRP | -2.94
RRIRFRPPRLPRPRPRPEWPPRP | 0.459
RRIRWRPPRLPRPRPRPGDTPRP | -0.0199
RRIRYRPPRLPRPRPRPEEPPRP | 0.115
RRIRFRPPRLPRPRPRPATHPRP | 0.167
RRIRRRPPRLPRPRPRPTQRPRP | 0.625
RRIRARPPRLPRPRPRPNQNPRP | 0.0844
RRIRERPPRLPRPRPRPFGKPRP | -0.01
RRIRFRPPRLPRPRPRPEGKPRP | 0.143
RRIRNRPPRLPRPRPRPLHVPRP | 0.251
RRIRNRPPRLPRPRPRPGGWPRP | 0.662
RRIRVRPPRLPRPRPRPETDPRP | 0.023
RRIRCRPPRLPRPRPRPFTDPRP | -0.182
RRIRNRPPRLPRPRPRPHIAPRP | -0.621

Sequence | shrunken log2 fold change
RRIRYRPPRLPRPRPRPKMTPRP | -0.728
RRIRKRPPRLPRPRPRPDDTPRP | 2.31
RRIRERPPRLPRPRPRPPPKPRP | 0.748
RRIRQRPPRLPRPRPRPQDMPRP | 0.0179
RRIRKRPPRLPRPRPRPQLWPRP | 0.539
RRIRCRPPRLPRPRPRPYAFPRP | -0.425
RRIRFRPPRLPRPRPRPKDHPRP | -0.179
RRIRLRPPRLPRPRPRPDWYPRP | -0.464
RRIRMRPPRLPRPRPRPFHTPRP | 0.0481
RRIRRRPPRLPRPRPRPANCPRP | 0.00326
RRIRERPPRLPRPRPRPTYYPRP | -0.614
RRIRERPPRLPRPRPRPHDMPRP | -0.0911
RRIRGRPPRLPRPRPRPWNVPRP | -0.0303
RRIRVRPPRLPRPRPRPSYMPRP | -1.16
RRIRIRPPRLPRPRPRPVQYPRP | -0.106
RRIRHRPPRLPRPRPRPNPGPRP | 0.111
RRIRPRPPRLPRPRPRPHWWPRP | 0.507
RRIRNRPPRLPRPRPRPMLAPRP | -0.053
RRIRMRPPRLPRPRPRPDWCPRP | 0.0698
RRIRTRPPRLPRPRPRPNNGPRP | -0.602
RRIRQRPPRLPRPRPRPMTIPRP | -0.227
RRIRWRPPRLPRPRPRPFKAPRP | 0.0343
RRIRKRPPRLPRPRPRPKAGPRP | 0.504
RRIRSRPPRLPRPRPRPPQQPRP | 0.38
RRIRLRPPRLPRPRPRPGNDPRP | -0.0526

Sequence | shrunken log2 fold change
RRIRLRPPRLPRPRPRPDELPRP | 0.00705
RRIRTRPPRLPRPRPRPCDFPRP | 0.042
RRIRHRPPRLPRPRPRPPQGPRP | 0.133
RRIRFRPPRLPRPRPRPCRTPRP | 0.048
RRIRDRPPRLPRPRPRPYWLPRP | -0.236
RRIRERPPRLPRPRPRPKFAPRP | -0.139
RRIRFRPPRLPRPRPRPINRPRP | 0.0882
RRIRNRPPRLPRPRPRPSKYPRP | -0.532
RRIRPRPPRLPRPRPRPLPIPRP | -0.301
RRIRPRPPRLPRPRPRPMIIPRP | -0.152
RRIRARPPRLPRPRPRPWISPRP | -0.333
RRIRERPPRLPRPRPRPCCTPRP | -0.243
RRIRERPPRLPRPRPRPFLIPRP | -0.728
RRIRTRPPRLPRPRPRPFFEPRP | 0.123
RRIRYRPPRLPRPRPRPGPTPRP | -0.0479
RRIRVRPPRLPRPRPRPDYIPRP | -0.381
RRIRWRPPRLPRPRPRPTPHPRP | 0.427
RRIRNRPPRLPRPRPRPVPQPRP | 0.24
RRIRHRPPRLPRPRPRPGFWPRP | 0.0409
RRIRTRPPRLPRPRPRPCGWPRP | 0.0147
RRIRERPPRLPRPRPRPLWKPRP | -0.424
RRIRPRPPRLPRPRPRPHSFPRP | -0.0599
RRIRWRPPRLPRPRPRPHCDPRP | 0.135
RRIRLRPPRLPRPRPRPREVPRP | 0.59
RRIRMRPPRLPRPRPRPVHSPRP | 0.0125

Sequence | shrunken log2 fold change
RRIRIRPPRLPRPRPRPAVEPRP | 0.193
RRIRGRPPRLPRPRPRPANFPRP | 0.0804
RRIRGRPPRLPRPRPRPRMPPRP | 0.605
RRIRERPPRLPRPRPRPEGAPRP | 0.592
RRIRTRPPRLPRPRPRPKNNPRP | -0.483
RRIRYRPPRLPRPRPRPWGWPRP | -0.0384
RRIRQRPPRLPRPRPRPRDAPRP | 0.494
RRIRARPPRLPRPRPRPCTVPRP | -0.26
RRIRHRPPRLPRPRPRPKHAPRP | 0.126
RRIRRRPPRLPRPRPRPFWAPRP | 0.0811
RRIRIRPPRLPRPRPRPTFRPRP | -0.261
RRIRMRPPRLPRPRPRPWLMPRP | 0.0599
RRIRNRPPRLPRPRPRPPVFPRP | 0.15
RRIRIRPPRLPRPRPRPMHHPRP | -0.4
RRIRERPPRLPRPRPRPGYTPRP | 0.0628
RRIRVRPPRLPRPRPRPWNDPRP | -0.0722
RRIRQRPPRLPRPRPRPNGDPRP | 0.0171
RRIRNRPPRLPRPRPRPLIDPRP | -0.0832
RRIRWRPPRLPRPRPRPCFDPRP | 0.172
RRIRTRPPRLPRPRPRPAFLPRP | 0.228
RRIRKRPPRLPRPRPRPCTLPRP | 0.0143
RRIRDRPPRLPRPRPRPDGFPRP | 0.0291
RRIRPRPPRLPRPRPRPFMRPRP | -0.1
RRIRHRPPRLPRPRPRPTKSPRP | -0.0287
RRIRNRPPRLPRPRPRPYHKPRP | -2.76
